Measurements as given in patent US20210138090A1, “uPAR targeting peptide for use in peroperative optical imaging of invasive cancer” (FLUOGUIDE A/S, priority 2014, published 2021).
Square brackets hold non-standard residues; d marks the D form. Peptide text beside a SMILES is read from it. * marks the point of attachment. IRDye800CW = CC1(C)C(/C=C/C2=C(Oc3ccc(S(=O)(=O)O)cc3)C(=C/C=C3/N(CCCCS(=O)(=O)O)c4ccc(S(=O)(=O)O)cc4C3(C)C)/CCC2)=[N+](CCCCCC(=O)*)c2ccc(S(=O)(=O)[O-])cc21; Cha = N[C@@H](CC1CCCCC1)C(=O)O; AEEA = NCCOCCOCC(=O)O

How the values were obtained:
uPAR wt = uPAR wt (Homo sapiens, UniProt Q03405); assay: SPR inhibition of uPAR binding to immobilized uPA
Chain of uPAR wt (Q03405 23-305 limits assumed): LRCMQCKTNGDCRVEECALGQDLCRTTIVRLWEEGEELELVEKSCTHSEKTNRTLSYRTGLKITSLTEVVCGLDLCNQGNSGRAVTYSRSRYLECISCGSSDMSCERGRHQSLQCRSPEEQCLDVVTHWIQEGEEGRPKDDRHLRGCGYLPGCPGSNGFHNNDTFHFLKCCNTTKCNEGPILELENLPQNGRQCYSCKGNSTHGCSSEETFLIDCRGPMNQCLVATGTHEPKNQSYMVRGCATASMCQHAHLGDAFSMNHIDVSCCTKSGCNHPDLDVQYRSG
Experimental: (§1) Covalent immobilization of purified human prouPA^S356A—was accomplished by injecting 12.5 μg/ml protein dissolved in 10 mM sodium acetate (pH 5.0) over a CM5 chip that had been pre-activated with NHS/EDC (N-ethyl-N′-[3-[…])propyl]-carbodiimide), aiming at a surface density of >5000 resonance units (RU) corresponding to 100 fmols/mm^2. After coupling the sensorchip was deactivated with 1 M ethanolamine. Binding of purified human uPAR as analyte was measured from 4 nM to 0.25 nM at 20° C. using 10 mM HEPES, 150 mM NaCl, 3 mM EDTA (pH 7.4) containing 0.05% (v/v) surfactant P20 as running buffer at a flow rate of 50 μl/min. In between cycles the sensorchip was regenerated by two consecutive 10-μl injections of 0.1 M acetic acid/HCl (pH 2.5) in 0.5 M NaCl. The inhibition of 3-fold dilutions of the compounds in question was measured for 4 nM uPAR with identical running conditions. All experiments were performed on a BiacoreT200 instrument.
(§2) For each inhibition peptide inhibition profile of uPAR binding to immobilized uPA there has been run a preceding standard curve and all calculations are based on the that standard curve.
(§3) Surface plasmon resonance (SPR) was applied to determine the […]-value of IRDye800-AE344 on the uPAR⋅uPA interaction in solution using a Biacore 3000 instrument essentially as described. In brief; pro-uPA^S356A, which is the natural ligand for uPAR. […] The analysis was carried out by measuring vobs of a fixed uPAR concentration (2 nM) incubated with a 3-fold dilution series of IRDye800-AE344 (ranging from 0.076 nM to 1.5 μM) for 300 sec at 20° C. with a flow rate of 50 μL/min. A standard curve was measured in parallel (2-fold dilution of uPAR covering 0.06 nM to 2 nM) including one repeated concentration point at the end to validate the biological integrity of the sensor chip. Running buffer contained 10 mM HEPES, 150 mM NaCl, 3 mM EDTA and 0.05% (v/v) surfactant P20, pH 7.4. The sensor chip was regenerated with two injections of 0.1 M acetic acid, 0.5 M NaCl. The parent nonamer peptide antagonist AE105 (Asp-Cha-Phe-D-Ser-D-Arg-Tyr-Leu-Trp-Ser-OH) was analyzed in parallel as positive control and the closed uPAR^H47C-N259C was used as negative control as its uPA binding cavity cannot accommodate AE105.

uPAR H47C-N259C = uPAR H47C-N259C (Homo sapiens, UniProt Q03405, H69C/N281C); assay: SPR inhibition of uPAR binding to immobilized uPA, constrained uPAR variant (negative control)
Chain of uPAR H47C-N259C (Q03405 23-305 H69C/N281C limits assumed): as the sequence (Q03405 23-305 limits assumed) above, with H47C, N259C counted along it
Experimental: as §1, §2
as §3, with “Running buffer contained 10 mM HEPES, 150 mM NaCl, 3 mM EDTA and 0.05% (v/v) surfactant P20, pH 7.4. The sensor chip was regenerated with two injections of 0.1 M acetic acid, 0.5 M NaCl.” left out

[1] = vis/NIR spectral properties; format: physicochemical
Experimental: Fluorophore excitation and emission profiles were obtained with PTI QuantaMaster 400 (Horiba Ltd., Japan). Excitation profile was measured at λemission=850 nm and the emission profile were measured at λexcitation=740 nm with xenon arc lamps as excitation source. Absorption was measured on a Cary 300 UV-Vis (Agilent, Santa Clara, Calif., USA).

[2] = test system: orthotopic GBM (U-87 MG-luc2 cells); assay: dynamic NIR imaging of orthotopic GBM on cross sectioned brain (Fluobeam); format: in vivo, mice; details: for tumor mean fluorescence intensity (MFI): 333 ms exposure
Experimental: All experimental procedures in animals were carried out in accordance with the approval by The Animal Experiments Inspectorate, Denmark. 7-10-week-old female nude mice (strain: Rj:NMRI-Foxn1nu/nu, JANVIER LABS, France) were orthotopically xenografted with U-87 MG-luc2 cells.
The orthotopic GBM tumor model was established by inoculation of 500.000 cells in 10 μL ice cold PBS in the right hemisphere (1.5 mm lateral and 0.5 mm posterior to the bregma at 2 mm depth) using a stereotaxic frame (KOPF INSTRUMENTS, Tujunga, Calif., USA) with the automated microinjection pump UMP3 (WPI, Sarasota, Fla., USA). The cells were injected over 5 min with the syringe kept in place for further 3 min before retraction. Tumor growth was subsequently monitored on MRI with the BioSpec 7T (Bruker, Billerica, Mass., USA) with axial and coronal T2-wighted sequences. When the tumor size reached 2-17 mm^3, the animals were included in the fluorescence imaging protocol.
All image acquisition was performed with the Fluobeam system with (Fluosoft version: 2.2.1) (Fluoptics, Grenoble, France). To characterize the in vivo biodistribution and tumor imaging properties, IRDye800-AE344 was administered through tail vein injection into all the GBM bearing mice (n=35) at four different doses: 1 nmol, 3 nmol, 6 nmol, and 12 nmol. Two mice were sacrificed for each time point and the brain was removed and cross sectioned through the tumor for imaging. […] Accordingly, image acquisition was performed at following time points after injection: • 1 nmol: 0.5 h, 1 h, and 2 h • 3 nmol: 1 h, 2 h, 3 h, and 5 h • 6 nmol: 1 h, 3 h, 6 h, and 12 h • 12 nmol: 1 h, 3 h, 5 h, 10 h, 15 h, and 24 h
Images were analyzed and processed in ImageJ 1.52a, NIH, USA. Signal measurements were performed on the raw images generated by the Fluoptics system. Tumor signal was measured as a mean fluorescence intensity of the whole tumor and background signal was measured as the mean of a representative area with no tumor on the contralateral hemisphere. Presented pictures are contrast enhanced in ImageJ with the Contrast Enhancement (Saturated pixels: 0.3%).

[3] = biodistribution by organ fluorescence imaging; format: in vivo, mice; details: 3 nmol, 1 h
Description: […] Due to renal excretion, the fluorescence signal in the kidneys were out of scale compared to all the other organs. […] The skin was imaged partially (1.25 g) and the biodistribution was extrapolated with respect to the full weight of the skin (4.9 g).

CC(C)C[C@H](NC(=O)[C@H](Cc1ccc(O)cc1)NC(=O)[C@@H](CCCNC(=N)N)NC(=O)[C@@H](CO)NC(=O)[C@H](Cc1ccccc1)NC(=O)[C@H](CC1CCCCC1)NC(=O)[C@H](CC(=O)O)NC(=O)COCCOCCNC(=O)COCCOCCNC(=O)[C@H](CCC(=O)O)NC(=O)[C@H](CCC(=O)O)NC(=O)CCCCC[N+]1=C(/C=C/C2=C(Oc3ccc(S(=O)(=O)O)cc3)C(=C/C=C3/N(CCCCS(=O)(=O)O)c4ccc(S(=O)(=O)O)cc4C3(C)C)/CCC2)C(C)(C)c2cc(S(=O)(=O)[O-])ccc21)C(=O)N[C@@H](Cc1c[nH]c2ccccc12)C(=O)N[C@@H](CO)C(=O)O [IRDye800CW-AE344, IRDye800-Glu-Glu-O2Oc-O2Oc-Asp-Cha-Phe-D-ser-D-arg-Tyr-Leu-Trp-Ser-OH] (IRDye800CW-EE[AEEA][AEEA]D[Cha]F[dS][dR]YLWS-OH)
IC50 (uPAR wt): 20 ± 1.1 nM | IC50 (uPAR H47C-N259C): 5800 ± 20 nM | Stokes shift [1]: 10 nm | absorption peak λabs,max [1]: 777 nm | excitation peak λexcitation,max [1]: 784 nm | peak emission λemission,max [1]: 794 nm | maximal TBR ([2]; 1 nmol, at 0.5 h): 4.4 | tumor mean fluorescence intensity (MFI) ([2]; 1 nmol, at time of maximal TBR (0.5 h)): 29 a.u. | maximal TBR ([2]; 3 nmol, at 1 h): 6.6 | tumor mean fluorescence intensity (MFI) ([2]; 3 nmol, at time of maximal TBR (1 h)): 77 a.u. | TBR ([2]; 6 nmol, 1 h): 4.7 | tumor MFI ([2]; 6 nmol, 1 h): 108 a.u. | tumor mean fluorescence intensity (MFI) ([2]; 6 nmol, 3 h): 82 a.u. | TBR (highest) ([2]; 6 nmol, 3 h after injection): 7.0 | TBR ([2]; 6 nmol, 6 h): 6.1 | TBR ([2]; 6 nmol, 12 h): 4.5 | decrease in tumor MFI ([2]; 6 nmol, from 1 h to 3 h): 24% | TBR ([2]; 6 nmol, from 1 h to 12 h after injection): above 4.5 | peak time of TBR ([2]; 12 nmol): 15 h | tumor MFI relative to that at 6 nmol ([2]; 12 nmol): 58% | maximal TBR ([2]; 12 nmol, at 15 h): 6.7 | tumor mean fluorescence intensity (MFI) ([2]; 12 nmol, at time of maximal TBR (15 h)): 48 a.u. | MFI brain ([3]; 333 ms exposure): 19 a.u. | MFI liver ([3]; 333 ms exposure): 88 a.u. | MFI lungs ([3]; 333 ms exposure): 101 a.u. | MFI skin ([3]; 333 ms exposure): 99 a.u. | MFI tumor ([3]; 333 ms exposure): 65 a.u. | normalized uptake brain ([3]; normalized to skin=100): 0.7 | normalized uptake colon ([3]; normalized to skin=100): 4.0 | normalized uptake heart ([3]; normalized to skin=100): 0.4 | normalized uptake kidneys ([3]; normalized to skin=100): 38.8 | normalized uptake liver ([3]; normalized to skin=100): 12.2 | normalized uptake lungs ([3]; normalized to skin=100): 4.2 | normalized uptake pancreas ([3]; normalized to skin=100): 3.4 | normalized uptake small intestine ([3]; normalized to skin=100): 11.2 | normalized uptake spleen ([3]; normalized to skin=100): 0.4 | normalized uptake tumor ([3]; normalized to skin=100): 0.1 | normalized uptake ventricle ([3]; normalized to skin=100): 0.9 | normalized uptake skin ([3]; skin = reference): 100 | MFI kidneys ([3]; extrapolated from 40 ms exposure): 1,236 a.u.
